# From paper doi:10.1101/382812
# Target: Hcf106 G6CV14C (Pisum sativum)
# Experiment: cross-linking
substance,measurement,value
Hcf106 G6CV14C (natural protein),stoichiometry N,< 8
